The values below are quoted from earlier work in publication PMC4117426.

Where two headings read alike, the source gives them in different places.

The target of data set [1] is FtsZ tail peptide C-terminal tail (Escherichia coli) (UniProt P0A9A6).
Data set [2] has the same target. This is another data set of the same source.

Sequence of FtsA (P0ABH0 whole entry): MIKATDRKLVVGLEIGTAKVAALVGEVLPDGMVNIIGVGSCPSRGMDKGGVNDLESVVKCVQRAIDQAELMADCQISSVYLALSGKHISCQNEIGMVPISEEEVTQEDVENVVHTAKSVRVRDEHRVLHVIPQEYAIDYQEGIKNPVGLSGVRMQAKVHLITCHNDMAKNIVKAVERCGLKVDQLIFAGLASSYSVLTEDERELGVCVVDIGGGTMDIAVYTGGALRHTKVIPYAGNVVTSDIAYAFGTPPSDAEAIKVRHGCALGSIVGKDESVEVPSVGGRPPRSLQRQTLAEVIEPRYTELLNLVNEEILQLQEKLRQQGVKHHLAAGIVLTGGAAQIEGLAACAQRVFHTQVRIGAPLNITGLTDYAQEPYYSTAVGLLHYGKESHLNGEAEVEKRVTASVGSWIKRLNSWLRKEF

A word on the Kd: it is the concentration at which binding is half-saturated. Consider FtsA (from UniProt P0ABH0), for which the Kd in data set [1] was 50 µM.

Take ZipA (from UniProt P77173): the Kd in data set [2] is 20 µM.
